Results as given in PMC9065035, “Structural basis for the synthesis of the core 1 structure by C1GalT1” (Nature Communications, 2022).
Ends that are not written are not given here. * marks the point of attachment. αGalNAc = CC(=O)N[C@@H]1[C@@H](O)[C@@H](O)[C@@H](CO)O[C@@H]1*

B7: DmC1GalT1^S73-Q388 (Drosophila melanogaster C1GalT1, residues S73-Q388) (enzyme)
chain: not shown
modifications: N-glycans trimmed with Endoglycosidase-H (expressed with kifunensine)
notes: C1GalT1 (core 1 synthase) of Drosophila melanogaster, residues S73-Q388; Expressed with the honey bee mellitin secretion signal in front (pFastBac1-mellitin-DmC1GalT1-6His); two molecules in the asymmetric unit arranged as a homodimer; also called truncated version of DmC1GalT1; mellitin-DmC1GalT1-6His; source: High Five insect cells (baculovirus), secreted, purified (His-Trap, Endo-H, MBP-Trap, …)

How the values were obtained:
[1] = biological target: T1, Drosophila melanogaster C1GalT1, residues T43-Q388 (DmC1GalT1^T43-Q388) (Drosophila melanogaster, UniProt Q7K237 43-388); assay: ITC; 2 mM glycopeptide titrated into 60 uM enzyme; no UDP: 25 mM TRIS pH 7.5, 150 mM NaCl, 1 mM MnCl2; 20 °C; one-site model; duplicate; details: both partners purified
T1 construct: N-glycosylated when made in HEK293; also called core 1/T-synthase; source: HEK293, transfected (pHLSec), secreted, purified (His-Trap, Superdex 75)

[2] = biological target: T1, Drosophila melanogaster C1GalT1, …; assay: ITC; 2 mM glycopeptide titrated into the enzyme (60 uM for APDT*RP, 50 uM for P4/P7); excess of UDP: 25 mM TRIS pH 7.5, 150 mM NaCl, 1 mM UDP, 1 mM MnCl2; 20 °C; one-site model; duplicate; details: both partners purified
[3] = biological target: B7; assay: crystal structure; 15 mg/mL DmC1GalT1^S73-Q388, 5 mM UDP, 2 mM MnCl2, 5 mM APDT*RP; space group P2_(1); 2.40 Å; details: both partners purified
DmC1GalT1^T43-Q388 Y325A = DmC1GalT1^T43-Q388 Y325A (Drosophila melanogaster, UniProt Q7K237 43-388, Y325A); assay: cell-based or functional assay
DmC1GalT1^T43-Q388 R152A = DmC1GalT1^T43-Q388 R152A (Drosophila melanogaster, UniProt Q7K237 43-388, R152A); assay: cell-based or functional assay
DmC1GalT1^T43-Q388 Y213A = DmC1GalT1^T43-Q388 Y213A (Drosophila melanogaster, UniProt Q7K237 43-388, Y213A); assay: cell-based or functional assay
[4] = biological target: T2, DmC1GalT1^T43-Q388 (Drosophila melanogaster C1GalT1, residues T43-Q388) (Drosophila melanogaster); assay: ITC; in the absence of UDP: 2 mM glycopeptide titrated into 60 µM DmC1GalT1^T43-Q388; 20 °C; 25 mM TRIS pH 7.5, 150 mM NaCl, 1 mM MnCl2; one-site model; duplicate; details: both partners purified
T2 construct: N-glycosylated (lower eukaryotes' C1GalT1 are N-glycosylated); The pHLSec vector (AgeI/KpnI) may leave a few vector residues at both ends (surmise); the SEC was done with the S73-Q388 construct; also called core 1/T-synthase; DmC1GalT1-His; source: HEK293, transfected (pHLSec), secreted, purified (His-Trap, Superdex 75)

[5] = biological target: T2, DmC1GalT1^T43-Q388 (Drosophila …); assay: ITC; under an excess of UDP: 2 mM (glyco)peptide titrated into DmC1GalT1^T43-Q388 (60 µM for APDT*RP and APDTRP, 50 µM for P4/P7); 20 °C; 25 mM TRIS pH 7.5, 150 mM NaCl, 1 mM UDP, 1 mM MnCl2; one-site model; duplicate; details: both partners purified
[6] = biological target: the molecule itself; assay: SEC; size exclusion chromatography of DmC1GalT1^S73-Q388 against protein markers of known molecular weight
[7] = biological target: the molecule itself; assay: crystal structure; DmC1GalT1^S73-Q388 (15 mg/mL) with 5 mM UDP, 2 mM MnCl2 and 5 mM APDT*RP; space group P21; 2.40 Å
[8] = biological target: the molecule itself; assay: crystal structure; 15 mg/mL DmC1GalT1^S73-Q388, 5 mM UDP, 2 mM MnCl2, 5 mM APDT*RP; space group P2_(1); 2.40 Å

B1: P7 glycopeptide YADT*GPF (GalNAc on Thr) (peptide)
peptide: YADT(αGalNAc)GPF-NH2
notes: Asp at -1; Tied to the name P7 by the text (Asp at -1; ITC was done with P4 and P7 only besides APDT*RP); Made on Rink Amide MBHA resin, so probably a C-terminal amide (surmised); source: synthetic peptide (solid-phase synthesis, HPLC purified)
What does the source list for B1?
Kd [1]: 37.1 µM; Kd [2]: 60 µM

B2: APDT*RP glycopeptide (MUC1 tandem repeat epitope with alpha-GalNAc on Thr) (peptide)
peptide: APDT(αGalNAc)RP-NH2
modifications: N-terminus assumed
SMILES: CC(=O)N[C@H]1[C@@H](O[C@H](C)[C@H](NC(=O)[C@H](CC(=O)O)NC(=O)[C@@H]2CCCN2C(=O)[C@H](C)N)C(=O)N[C@@H](CCCNC(=N)N)C(=O)N2CCC[C@H]2C(N)=O)O[C@H](CO)[C@H](O)[C@@H]1O
notes: source: synthetic peptide (Fmoc solid phase, Rink Amide MBHA resin, HPLC)
Does B2 bind [3]?
Result: binds

And the “glycosyltransferase activity relative to WT (UDP-Glo, 500 nM mutant, 500 μM UDP-Gal, 500 μM APDT*RP)” value (DmC1GalT1^T43-Q388 Y325A)?
The value was 25 fold decrease.

What about the “glycosyltransferase activity relative to WT (UDP-Glo, 500 nM mutant, 500 μM UDP-Gal, 500 μM APDT*RP)” value (DmC1GalT1^T43-Q388 R152A) of the same binder?
Its value is 15 fold decrease.

What about the “glycosyltransferase activity relative to WT (UDP-Glo, 500 nM mutant, 500 μM UDP-Gal, 500 μM APDT*RP)” value (DmC1GalT1^T43-Q388 Y213A) of the same binder?
The value was 25 fold decrease.

B3: P4 (PAAT*GPY) glycopeptide (peptide)
peptide: PAAT(αGalNAc)GPY-NH2
notes: designed acceptor glycopeptide; Made on Rink Amide resin, so a C-terminal amide is to be expected; source: synthetic peptide (solid-phase, Rink Amide MBHA resin, HPLC purified)
How did the Kd [4] turn out when B3 was run?
The Kd was 41 µM.

What about the “stoichiometry N” value [4] of the same binder?
The value was 0.98.

What about the Kd [5] of the same binder?
Its Kd is 60.4 µM.

And the “stoichiometry N” value [5]?
Its value is 0.88.

B4: DmC1GalT1^S73-Q388 (Drosophila melanogaster C1GalT1, residues S73-Q388) (enzyme)
chain: not shown
modifications: N-glycans trimmed with Endo-H
notes: C1GalT1 of Drosophila melanogaster, residues S73-Q388; Homodimer by SEC and in the crystal; also called truncated version of DmC1GalT1; DmC1GalT1-His
Which results are given for B4?
stoichiometry N [6]: 2; stoichiometry N [7]: 2

B5: P4 glycopeptide PAAT*GPY (GalNAc on Thr) (peptide)
peptide: PAAT(αGalNAc)GPY-NH2
notes: Tied to the name P4 by the residues that the text names for P4 (Pro1, Ala2, Ala3, Thr4, Gly5, Tyr7); Made on Rink Amide MBHA resin, so probably a C-terminal amide (surmised); source: synthetic peptide (solid-phase synthesis, HPLC purified)
Which Kd [1] does the source give for B5 here?
The Kd was 41 µM.

And the Kd [2]?
The Kd was 60.3 µM.

B6: P7 (YADT*GPF) glycopeptide (peptide)
peptide: YADT(αGalNAc)GPF-NH2
notes: as for B3
With B6 as the binder, how does the Kd [4] read?
Its Kd is 37.1 µM.

And the “stoichiometry N” value [4]?
The value was 0.65.

What about the Kd [5] of the same binder?
The Kd was 60 µM.

And the “stoichiometry N” value [5]?
The value was 1.5.

With B7 as the binder, how does the “stoichiometry N” value [8] read?
The value was 2.
